Where “and” joins values, the source holds several entries; their conditions need not be identical. Identical values can stand only once.
Molecular target: the molecule itself
Test: native gel or EMSA; blue native PAGE (3-12% NativePAGE Bis-Tris) of 0.8 ug purified protein in loading buffer with 50 mM TCEP, 30 min at room temperature; Coomassie and western blot with Myc antibodies

| Protein | stoichiometry N |
| --- | --- |
| N-terminal domain (residues 1–99) of rU1-70K (domain or fragment, UniProt P08621 1-99, looked up, U1-70K residues 1-99 (N-terminus); The GST carrier was kept in BN-PAGE (~65 kDa on SDS-PAGE); also called N-terminus (1–99 residues) alone; source: HEK293, transfected, in lysate) MTQFLPPNLLALFAPRDPIPYLPPLEKLPHEKHHNQPYCGIAPYIREFEDPRDAPPPTRAETREERMERKRREKIERRQQEVETELKMWDPHNDPNAQG | 2 |
| LC1 domain (residues 231–308) of rU1-70K (domain or fragment, UniProt P08621 231-308, looked up, The GST carrier was kept in BN-PAGE (~65 kDa on SDS-PAGE); also called LC1 alone; mixed charge LC1 domain; source: HEK293, transfected, in lysate) RDRDRDRERERRERSRERDKERERRRSRSRDRRRRSRSRDKEERRRSRERSKDKDRDRKRRSSRSRERARRERERKEE | 2 and 3 and 4 |
